# Measured values as given in article PMC12457637, “An aptamer-drug conjugate for promising cancer therapy with comprehensive evaluation from rodents to non-human primates” (Signal Transduction and Targeted Therapy, 2025).
# Like-named read-outs stand apart in the source and are kept apart here. Non-standard residues stand in square brackets, D forms with d. Residues, ends and D or L forms follow the SMILES beside them. *: point of attachment. Dolaproine = CO[C@@H]([C@@H]1CCCN1)[C@@H](C)C(=O)O; Dil = CC[C@H](C)[C@H](NC)[C@@H](CC(=O)O)OC; X1 = C[C@@H](N*)[C@@H](O)c1ccccc1; NMeV = CN[C@H](C(=O)O)C(C)C
# T1: PTK7 (human, UniProt Q13308 31-704)
# T1 sequence: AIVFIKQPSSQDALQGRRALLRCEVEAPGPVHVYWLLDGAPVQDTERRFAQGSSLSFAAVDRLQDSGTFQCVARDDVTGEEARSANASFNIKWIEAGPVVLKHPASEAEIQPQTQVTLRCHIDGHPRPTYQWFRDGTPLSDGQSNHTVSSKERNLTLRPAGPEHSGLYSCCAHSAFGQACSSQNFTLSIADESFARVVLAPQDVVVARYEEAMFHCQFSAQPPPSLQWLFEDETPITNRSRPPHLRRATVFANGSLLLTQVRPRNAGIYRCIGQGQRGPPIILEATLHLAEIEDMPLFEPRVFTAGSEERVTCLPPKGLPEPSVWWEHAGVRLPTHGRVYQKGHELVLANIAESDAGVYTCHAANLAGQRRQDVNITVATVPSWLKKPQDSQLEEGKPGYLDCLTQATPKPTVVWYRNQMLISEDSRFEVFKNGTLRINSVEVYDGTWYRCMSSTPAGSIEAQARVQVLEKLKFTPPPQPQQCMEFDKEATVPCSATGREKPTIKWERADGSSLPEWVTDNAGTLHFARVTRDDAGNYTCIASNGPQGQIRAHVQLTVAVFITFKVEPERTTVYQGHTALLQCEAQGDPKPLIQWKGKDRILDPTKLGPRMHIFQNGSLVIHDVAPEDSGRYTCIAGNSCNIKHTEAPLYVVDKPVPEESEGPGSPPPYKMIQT
# T2: PTK7 (mouse, UniProt Q8BKG3 23-696)
# T2 sequence: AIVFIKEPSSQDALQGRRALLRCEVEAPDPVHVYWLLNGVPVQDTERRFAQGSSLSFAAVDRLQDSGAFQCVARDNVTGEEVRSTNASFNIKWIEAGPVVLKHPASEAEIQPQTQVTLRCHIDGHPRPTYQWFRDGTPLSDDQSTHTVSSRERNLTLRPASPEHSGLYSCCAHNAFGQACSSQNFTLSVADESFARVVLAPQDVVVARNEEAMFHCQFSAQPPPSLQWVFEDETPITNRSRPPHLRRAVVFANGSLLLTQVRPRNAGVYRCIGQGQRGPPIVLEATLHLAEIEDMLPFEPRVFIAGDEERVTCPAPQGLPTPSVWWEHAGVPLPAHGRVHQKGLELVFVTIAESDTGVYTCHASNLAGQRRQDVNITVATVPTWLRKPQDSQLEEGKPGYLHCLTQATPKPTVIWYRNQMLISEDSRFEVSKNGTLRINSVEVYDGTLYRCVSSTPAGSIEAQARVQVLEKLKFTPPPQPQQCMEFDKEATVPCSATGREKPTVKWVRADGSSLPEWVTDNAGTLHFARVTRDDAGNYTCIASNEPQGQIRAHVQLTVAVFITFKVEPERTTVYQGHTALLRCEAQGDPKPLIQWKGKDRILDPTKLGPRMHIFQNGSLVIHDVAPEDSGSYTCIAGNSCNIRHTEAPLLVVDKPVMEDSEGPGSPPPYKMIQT
# T3: human PTK7 (Homo sapiens, UniProt Q13308)
# T3 construct: His; purchased Sino Biological 19399-H08H
# T3 sequence (Q13308 31-704 limits assumed): T1 sequence
# B1: Disitamab vedotin: clinically approved ADC, anti-HER2 antibody conjugated with MMAE (conjugate, chains of the INN, looked up)
# VH: EVQLVQSGAEVKKPGATVKISCKVSGYTFTDYYIHWVQQAPGKGLEWMGRVNPDHGDSYYNQKFKDKATITADKSTDTAYMELSSLRSEDTAVYFCARNYLFDHWGQGTLVTVSS
# VL: DIQMTQSPSSVSASVGDRVTITCKASQDVGTAVAWYQQKPGKAPKLLIYWASIRHTGVPSRFSGSGSGTDFTLTISSLQPEDFATYYCHQFATYTFGGGTKVEIK
# modifications: MMAE payload
# notes: clinically approved ADC, anti-HER2 antibody conjugated with MMAE
# B2: h6M24-VcMMAE: PTK7-targeted ADC (DAR4): antibody of h6M24-vc0101 conjugated with the same MMAE payload (conjugate, chains of the INN, looked up)
# VH: QVQLVQSGPEVKKPGASVKVSCKASGYTFTDYAVHWVRQAPGKRLEWIGVISTYNDYTYNNQDFKGRVTMTRDTSASTAYMELSRLRSEDTAVYYCARGNSYFYALDYWGQGTSVTVSS
# VL: EIVLTQSPATLSLSPGERATLSCRASESVDSYGKSFMHWYQQKPGQAPRLLIYRASNLESGIPARFSGSGSGTDFTLTISSLEPEDFAVYYCQQSNEDPWTFGGGTKLEIK
# modifications: vcMMAE payload, DAR4
# Tests used:
# MDA-MB-468 xenograft = experiment: Antitumor efficacy, MDA-MB-468 xenograft; type: in vivo, mice; conditions: free MMAE at equivalent dose (0.359 mg/kg i.v.)
# Procedure: (§1) In vivo therapeutic evaluations were performed to evaluate the antitumor effects of the PTK7-targeted ApDC Sgc8c-M with comparisons made between the chemotherapeutic drug paclitaxel and the ApDC’s toxic payload MMAE in most cases. […] All tumor models were established on female BALB/c nude mice. Briefly, a 50 μL suspension of tumor cells (SUM159: 5 × 10^6, MDA-MB-468: 1 × 10^7, MIA PaCa-2: 5 × 10^6, OVCAR3: 5 × 10^6, HT-29: 5 × 10^6, NCI-H1975: 5 × 10^6, A549: 5 × 10^6) mixed with an equal volume of Matrigel (BD) was injected s.c. into the right hind flank region of mice. For the TNBC PDX and pancreatic cancer PDX F4 and F5 models, 3–5 mm^3 of tumor fragments were implanted into the right hind flank region of mice. When tumor sizes reached approximately 100 mm^3–300 mm^3, the mice were randomly divided into control and treatment groups. Sgc8c-M (i.v.), paclitaxel (i.p.), MMAE (i.v.), or ADC h6M24-VcMMAE (i.v.) were administered to tumor-bearing mice respectively, and tumor volume and body weight were measured every 2 to 4 days following the initiation of treatment. […] Tumor volume was calculated according to the following equation: Tumor volume = (tumor length × tumor width^2)/2. TGI (%) was calculated as follows: TGI (%) = [1 – (mean of tumor volume in the treatment group)/(mean of tumor volume in the saline group)] × 100.
# [1] = set-up: method as in PMID 31877330; conditions: cited from earlier work
# MIA PaCa-2 cells = experiment: 72-h cytotoxicity (MTS), MIA PaCa-2; type: cell-based
# Procedure: Cells were seeded in wells of a 96-well plate (6000 cells/well) and incubated overnight to allow for cell adherence. On the second day, 100 μL complete medium containing VcMMAE and Sgc8c-M (400, 200, 100, 50, 25, 12.5, and 6.25 nM), as well as MMAE (5, 2.5, 1.25, 0.625, 0.3125, 0.15625, and 0.078125 nM), were added to wells of a 96-well plate for an additional 72-h incubation at 37 °C. At the end of incubation, 100 μL of CellTiter 96® Aqueous One Solution Cell Proliferation Assay (MTS, Promega) solution (prepared by mixing 2 mL MTS with 9 mL of complete medium) were added to each well. The plates were then incubated for an additional 1–2 h to allow for the formation of formazan crystals. The absorbance of each well was measured at 490 nm using a Multi-Mode Microplate Reader (TECAN, SPARK) to assess cell viability. Cell viability was calculated as [OD490 (treatment) - OD490 (blank)]/[OD490 (nontreatment) - OD490 (blank)] × 100%.
# TNBC PDX = experiment: Antitumor efficacy, TNBC PDX; type: in vivo, mice; conditions: 10 mg/kg i.p.
# Procedure: as §1
# SUM159 xenograft = experiment: Antitumor efficacy, SUM159 xenograft; type: in vivo, mice; conditions: 10 mg/kg i.p., Fig. 2c
# Procedure: as §1
# PTK7 [2] = target: T1, PTK7; experiment: SPR; 5 mM Mg2+; 400 nM; SPR (Biacore 8K, CM5): DPBS + 5 mM MgCl2, 10 uL/min, 180 s association and dissociation; temperature and pH of running buffer not stated; conditions: protein: commercial; tags: His
# PTK7 [3] = target: T4, PTK7 (rat, UniProt A0A8I6AKN3 23-696); experiment: SPR; 5 mM Mg2+; Kd only in figure; SPR (Biacore 8K, CM5): DPBS + 5 mM MgCl2, 10 uL/min, 180 s association and dissociation; temperature and pH of running buffer not stated; conditions: protein: commercial; tags: His
# PTK7 [4] = target: T1, PTK7; experiment: as above; conditions: protein: commercial; tags: His
# PTK7 [5] = target: T2, PTK7; experiment: as above; conditions: protein: commercial; tags: His
# PTK7 [6] = target: T4, PTK7; experiment: SPR; 5 mM Mg2+; 400 nM; Kd only in figure; SPR (Biacore 8K, CM5): DPBS + 5 mM MgCl2, 10 uL/min, 180 s association and dissociation; temperature and pH of running buffer not stated; conditions: protein: commercial; tags: His
# PTK7 [7] = target: T1, PTK7; experiment: as above; conditions: protein: commercial; tags: His
# PTK7 [8] = target: T2, PTK7; experiment: as above; conditions: protein: commercial; tags: His
# human PTK7 = target: T3, human PTK7; experiment: SPR binding to recombinant human PTK7
# Source text: For SPR analysis, human (#19399-H08H, Sino Biological), mouse (HY-P78761, MCE), rat (HY-P78619, MCE), and cynomolgus monkey (#90979-C08H, Sino Biological) PTK7 proteins with His tags were immobilized on a carboxymethylated dextran CM5 chip on SPR (Cytiva Biacore 8 K). Sodium acetate buffer (NaAC) at pH 5.0/5.5 was used for human and cynomolgus monkey PTK7 proteins, while a pH of 4.5 was applied for mouse and rat PTK7 proteins. His protein was simultaneously immobilized on the CM5 chip as a control using pH 4.5 NaAC. The final concentration of all above proteins was 10 μg/mL. Unreacted carboxyl groups were subsequently deactivated using ethanolamine-HCl. Sgc8c were diluted to 25, 50, 100, 200, and 400 nM in running buffer (DPBS supplemented with 5 mM MgCl2), and Sgc8c-M and Ctrl-M were diluted to 400 nM. Sgc8c, Sgc8c-M, and Ctrl-M were sequentially injected over the immobilized surface from low to high concentrations for a 180-s association phase followed by a 180-s dissociation phase at a flow rate of 10 µL/min. The capture surface was regenerated after each cycle with a 30-s contact time of 1.5 M NaCl at a flow rate of 30 µL/min. The equilibrium dissociation constant (Kd) was subsequently analyzed by Biacore Insight Evaluation software.
molecule,measurement,setting,value
"CC[C@H](C)[C@@H]([C@@H](CC(=O)N1CCC[C@H]1[C@H](OC)[C@@H](C)C(=O)N[C@H](C)[C@@H](O)c1ccccc1)OC)N(C)C(=O)[C@@H](NC(=O)[C@@H](NC)C(C)C)C(C)C [MMAE, monomethyl auristatin E] (H-[NMeV]V[Dil][Dolaproine]-X1)",TGI,MDA-MB-468 xenograft,76%
same,mortality,[1]; single administration of 0.16 mg/kg,100%
same,IC50 lower than that of Sgc8c-M,MIA PaCa-2 cells; MIA PaCa-2,approximately 48 fold
same,IC50,"MIA PaCa-2 cells; MIA PaCa-2, 72-h incubation",0.389 nM
CC(=O)O[C@H]1C(=O)[C@@]2(C)[C@H]([C@H](OC(=O)c3ccccc3)[C@]3(O)C[C@H](OC(=O)[C@H](O)[C@@H](NC(=O)c4ccccc4)c4ccccc4)C(C)=C1C3(C)C)[C@]1(OC(C)=O)CO[C@@H]1C[C@@H]2O [paclitaxel],tumor growth compared to saline controls,TNBC PDX,failed to significantly inhibit tumor growth
same,tumor growth relative to saline controls,SUM159 xenograft,partially reduced tumor growth
B1,mortality,[1]; single injection of 18 mg/kg (approx. 0.35 mg/kg MMAE),50%
"AGATTGGCATGTCATAAAAGGGCCGCCGCGTCGTCAATCTA (ssDNA, 3'-C6-S-maleimide MC-VC-PAB-MMAE conjugate) [Ctrl-M]",binding result,PTK7 [2],no binding
ATCTAACTGCTGCGCCGCCGGGAAAATACTGTACGGTTAGA (structured_DNA) [Sgc8c],binding result,PTK7 [3],binds
same,binding result,PTK7 [4],binds
same,binding result,PTK7 [5],binds
"ATCTAACTGCTGCGCCGCCGGGAAAATACTGTACGGTTAGA (structured_DNA, 3'-C6-S-maleimide MC-VC-PAB-MMAE conjugate) [Sgc8c-M]",binding result,PTK7 [6],binds
same,binding result,PTK7 [7],binds
same,binding result,PTK7 [8],binds
B2,Kd,human PTK7,3.18 nM
